Data reported in US20120058499.

Molecular target: NEDD8-amino-luciferin, Q15843
Sequence (Q15843 whole entry, looked up): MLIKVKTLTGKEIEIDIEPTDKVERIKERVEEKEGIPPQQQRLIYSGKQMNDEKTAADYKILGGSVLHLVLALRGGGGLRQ

B1: DEN1 (NEDD8-specific protease 1) (protein)
chain: MDPVVLSYMDSLLRQSDVSLLDPPSWLNDHIIGFAFEYFANSQFHDCSDHVSFISPEVTQFIKCTSNPAEIAMFLEPLDLPNKRVVFLAINDNSNQAAGGTHWSLLVYLQDKNSFFHYDSHSRSNSVHAKQVAEKLEAFLGRKGDKLAFVEEKAPAQQNSYDCGMYVICNTEALCQNFFRQQTESLLQLLTPAYITKKRGEWKDLITTLAKK
**Q.** How did the “luminescence (RLUs), 250 nM substrate” value turn out when B1 was run?
**A.** The value was “A significant increase in signal was observed with the NEDD8-amino-luciferin substrate at a Den1 concentration at least 3-orders of magnitude lower than required for the Z-RLRGG (SEQ ID NO: 1)-amino-luciferin substrate”.
